From patent publication US6660836

Key:
[1] = target: Gαq-glutathione S-transferase fusion protein; assay: hydroxyl radical alkyl 1H/2H exchange footprinting normalised to internal reference 2,4-DNP-Leu; 50 µM GST-Gaq/100 µM CTP, 400 µM OH radical
[2] = target: Gαq-glutathione S-transferase fusion protein; assay: hydroxyl radical alkyl 1H/2H exchange footprinting normalised to internal reference 2,4-DNP-Leu; 30 µM GST-Gaq/15.6 µM CTP, 400 µM OH radical
[3] = target: Gαq-glutathione S-transferase fusion protein; assay: hydroxyl radical alkyl 1H/2H exchange footprinting, LC-MS of DNS-amino acids; 50 µM GST-Gaq/100 µM CTP, 400 µM OH radical
[4] = target: Gαq-glutathione S-transferase fusion protein; assay: hydroxyl radical alkyl 1H/2H exchange footprinting, LC-MS of DNS-amino acids; 30 µM GST-Gaq/15.6 µM CTP, 400 µM OH radical
[5] = target: Gαq-glutathione S-transferase fusion protein; assay: hydroxyl radical alkyl 1H/2H exchange footprinting normalised to internal reference 2,4-DNP-Leu; 50 µM GST-Gaq/100 µM CTP, 200 µM OH radical
[6] = target: Gαq-glutathione S-transferase fusion protein; assay: hydroxyl radical alkyl 1H/2H exchange footprinting, LC-MS of DNS-amino acids; 50 µM GST-Gaq/100 µM CTP, 200 µM OH radical

In the case of SNEQKACKVLGI [C-terminal peptide (…) of the third intracellular loop of the 5-hydroxytryptamine2A receptor], the Protection Factor (residue Ala) [1] is reported as 7.2, the Protection Factor (residue Asp) [1] is reported as -1.5 and the Protection Factor (residue Glu) [1] is reported as 6.3. The Protection Factor (residue Gly) [1] was 0, the Protection Factor (residue Ile) [1] was 2.2 and the Protection Factor (residue Leu) [1] was 2.4. The Protection Factor (residue Lys) [1] was 2.3, the Protection Factor (residue Ser) [1] was 0 and the Protection Factor (residue Val) [1] was 2. For the same binder, the Protection Factor (residue Ala) [2] was 0.24, the Protection Factor (residue Asp) [2] was 0.16 and the Protection Factor (residue Glu) [2] was 0.37. For the same binder, the Protection Factor (residue Gly) [2] was 0.3, the Protection Factor (residue Ile) [2] was 0.41 and the Protection Factor (residue Leu) [2] was 0.39. For the same binder, the Protection Factor (residue Lys) [2] was 0.39, the Protection Factor (residue Ser) [2] was -0.35 and the Protection Factor (residue Val) [2] was 0.38. For the same binder, the Δ Isotope Ratio free/Δ Isotope Ratio bound (residue Ala) [3] was 6.3, the Δ Isotope Ratio free/Δ Isotope Ratio bound (residue Asp) [3] was -2.5 and the Δ Isotope Ratio free/Δ Isotope Ratio bound (residue Glu) [3] was 6.5. It also gave a Δ Isotope Ratio free/Δ Isotope Ratio bound (residue Gly) [3] of 0.5, a Δ Isotope Ratio free/Δ Isotope Ratio bound (residue Ile) [3] of 2.9 and a Δ Isotope Ratio free/Δ Isotope Ratio bound (residue Leu) [3] of 3.1. The Δ Isotope Ratio free/Δ Isotope Ratio bound (residue Lys, diDNS-Lys derivative) [3] was 3.1, the Δ Isotope Ratio free/Δ Isotope Ratio bound (residue Ser) [3] was 0 and the Δ Isotope Ratio free/Δ Isotope Ratio bound (residue Val) [3] was 2.7. The Δ Isotope Ratio free/Δ Isotope Ratio bound (residue Ala) [4] was 0.8, the Δ Isotope Ratio free/Δ Isotope Ratio bound (residue Asp) [4] was 0.53 and the Δ Isotope Ratio free/Δ Isotope Ratio bound (residue Glu) [4] was 1.2. It also gave a Δ Isotope Ratio free/Δ Isotope Ratio bound (residue Gly) [4] of 0.99, a Δ Isotope Ratio free/Δ Isotope Ratio bound (residue Ile) [4] of 1.4 and a Δ Isotope Ratio free/Δ Isotope Ratio bound (residue Leu) [4] of 1.3. It also gave a Δ Isotope Ratio free/Δ Isotope Ratio bound (residue Lys, diDNS-Lys derivative) [4] of 1.3, a Δ Isotope Ratio free/Δ Isotope Ratio bound (residue Ser) [4] of -1.2 and a Δ Isotope Ratio free/Δ Isotope Ratio bound (residue Val) [4] of 1.3. The Protection Factor (residue Ala) [5] was 2, the Protection Factor (residue Asp) [5] was -0.77 and the Protection Factor (residue Glu) [5] was 0.51. For the same binder, the Protection Factor (residue Gly) [5] was 0.32, the Protection Factor (residue Ile) [5] was 0.62 and the Protection Factor (residue Leu) [5] was 0.59. The Protection Factor (residue Lys) [5] was 0.58, the Protection Factor (residue Ser) [5] was 0 and the Protection Factor (residue Val) [5] was 0.61. It also gave a Δ Isotope Ratio free/Δ Isotope Ratio bound (residue Ala) [6] of 4.5, a Δ Isotope Ratio free/Δ Isotope Ratio bound (residue Asp) [6] of -2 and a Δ Isotope Ratio free/Δ Isotope Ratio bound (residue Glu) [6] of 1.8. It also gave a Δ Isotope Ratio free/Δ Isotope Ratio bound (residue Gly) [6] of 1.2, a Δ Isotope Ratio free/Δ Isotope Ratio bound (residue Ile) [6] of 2.5 and a Δ Isotope Ratio free/Δ Isotope Ratio bound (residue Leu) [6] of 2.3. The Δ Isotope Ratio free/Δ Isotope Ratio bound (residue Lys, diDNS-Lys derivative) [6] was 2.4, the Δ Isotope Ratio free/Δ Isotope Ratio bound (residue Ser) [6] was 0 and the Δ Isotope Ratio free/Δ Isotope Ratio bound (residue Val) [6] was 2.4.
